Laboratory results from patent US20060234944A1, “Beta-secretase inhibitors and methods of use” (Oklahoma Medical Reseach Foundation, priority 2001, published 2006).
Where no end group is shown, it is not given here. [ ]: non-standard residue; d: D form. FAM = 5-(and 6-)carboxyfluorescein; Ahx = NCCCCCC(=O)O

Molecular target: memapsin 2 (spontaneously activated promemapsin 2-T1; amino acids 43-456 and 45-456 of SEQ ID NO: 8) (human) (UniProt P56817)
Test: kinetic inhibition experiment (procedure of Ermolieff et al.)

Chain of memapsin 2 (spontaneously activated promemapsin 2-T1; amino acids 43-456 and 45-456 of SEQ ID NO: 8) (human) (P56817 41-454): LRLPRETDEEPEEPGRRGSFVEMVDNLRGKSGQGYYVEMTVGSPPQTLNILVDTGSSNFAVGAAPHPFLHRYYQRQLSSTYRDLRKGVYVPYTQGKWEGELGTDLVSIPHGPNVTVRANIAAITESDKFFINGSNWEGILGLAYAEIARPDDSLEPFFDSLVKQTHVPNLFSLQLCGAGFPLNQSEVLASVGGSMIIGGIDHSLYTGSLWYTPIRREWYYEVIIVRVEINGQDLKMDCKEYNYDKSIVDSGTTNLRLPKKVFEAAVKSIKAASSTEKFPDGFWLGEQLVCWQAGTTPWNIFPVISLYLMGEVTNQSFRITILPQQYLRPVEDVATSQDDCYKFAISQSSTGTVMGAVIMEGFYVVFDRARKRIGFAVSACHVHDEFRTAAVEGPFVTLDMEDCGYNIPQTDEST

Binder	Ki apparent	Ki
{FAM-Ahx}-ELDLAVEFGG[dR][dR][dR][dR][dR][dR][dR][dR][dR] (numbers in words are those of the source; also: hydroxyethylene isostere between Leu5 and Ala6) [CPI-2: FAM-Ahx-(ELDL*AVEF)-GG-(…)]	58 nM	–
ELDLAVEFGG[dR][dR][dR][dR][dR][dR][dR][dR][dR] (also: hydroxyethylene isostere between Leu4 and Ala5) [CPI-3: (ELDL*AVEF)-GG-(…)]	–	35 nM
